Among the data in patent publication US20240150785A1 are average LFQ intensity in eluate values, retold here.

What all share (assay): co-immunoprecipitation with bead-bound His-SUMO-BdRFS^Δ1-45 from crude leaf protein extract, LC-MS/MS
Common to all, as to settings: scale: LFQ intensity

Assay [1] has as its target Phospholipase D α1 (BdPLD α1, Bd2g04480) (Brachypodium distachyon).
The target in assay [2] is PLAT1 (Polycystin, Lipoxygenase, Alpha-toxin, and Triacylglycerol lipase 1) (Brachypodium distachyon).
For assay [3], the target named is LPR2 (Low Phosphate Root 2; cupredoxin family) (Brachypodium distachyon).
In assay [4] the target is NCED1 (Nine-cis Epoxycarotenoid Cleavage Dioxygenase 1) (Brachypodium distachyon).
In assay [5] the target is Abscisic acid-, Stress- and Ripening-induced 2 (BdASR2, Bd4g24650) (Brachypodium distachyon).

B1: His-SUMO-BdRFS^Δ1-45 (protein, not shown: small tags and cut ends; large carriers)
chain: RVRAAGSSHKPGGAVVRSTLVDNKKIASESFDGPRPARSEPASPISEPSSPSKVRFTAYYGGTGSDGGDDGVVEGVKKCAERDEDDFNGESETAVLRRTASMRMRSTIKAPLMAAPDWEEKEMALRKRGDLGWYRHLDMAVLDGSVVRLWTGEVTAAVQASPRERRRAGLELHLSV
Turning to B1, the average LFQ intensity in eluate in assay [1] was determined as 9.17e+06; in assay [2] it was 2.25e+07; in assay [3], 2.53e+07; in assay [4] it was 1.48e+07; in assay [5], 5.19e+07.
